From patent US20250043002A1 (Regeneron, published 2025)

Experiments:
[1] = target: T1, human CD28 on cells (endogenous on Jurkat/NFkB-Luc cells; human primary CD4+ T cells) (human, UniProt P10747 19-220); assay: cell-based or functional assay
[2] = target: human CD28 expressed with a C-terminal murine Fc tag (hCD28.mFc) (human); assay: SPR Biacore 25 C, hCD28.mFc captured by anti-mFc, antibody injected
[3] = target: T1, human CD28 on cells (endogenous on …); assay: flow cytometry, Jurkat/NFkB-Luc cells (endogenous CD28)
[4] = target: T2, human PD-L1 expressed on cells (HEK293/hCD20/hPSMA/hPD-L1; WSU-DLCL2/hPD-L1) (human, UniProt Q9NZQ7 19-290); assay: flow cytometry, HEK293/hCD20/hPSMA/hPD-L1 cells
T2 construct: whole, on cells; also called human programmed death ligand-1

[5] = target: human PD-L1 expressed with a C-terminal myc-myc-hexahistidine tag (hPD-L1.mmH) (human); assay: SPR Biacore 25 C, antibody captured by anti-hFc, hPD-L1.mmH injected
[6] = target: T3, hPD-L1-mFc: hPD-L1 extracellular domain (amino acids F19-T239) expressed with the Fc portion of mouse IgG2a … (human; mouse, UniProt Q9NZQ7 19-239); assay: blocking ELISA, 0.7 nM hPD-L1-mFc on plate-coated hPD1-hFc
T3 construct: range 19-239; not shown: Fc portion of mouse IgG2a, amino acids E98-K330

[7] = target: T2, human PD-L1 expressed on cells …; assay: cell-based or functional assay
[8] = target: T1, human CD28 on cells (endogenous on …); assay: cell-based or functional assay; remark: listed apart in the source
[9] = target: T1, human CD28 on cells (endogenous on …); assay: flow cytometry, Jurkat/NFkB-Luc cells (endogenous CD28); EC50 NC

T3 sequence (Q9NZQ7 19-239 limits assumed): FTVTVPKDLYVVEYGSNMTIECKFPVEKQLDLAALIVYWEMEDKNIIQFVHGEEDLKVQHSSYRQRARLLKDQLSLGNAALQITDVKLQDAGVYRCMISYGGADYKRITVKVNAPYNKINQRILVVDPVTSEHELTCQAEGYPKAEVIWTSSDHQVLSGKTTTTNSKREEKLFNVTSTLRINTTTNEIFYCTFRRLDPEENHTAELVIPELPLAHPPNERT
human PD-L1 expressed with a C-terminal myc-myc-hexahistidine tag (hPD-L1.mmH) (human), sequence (chain, as listed by the source limits assumed): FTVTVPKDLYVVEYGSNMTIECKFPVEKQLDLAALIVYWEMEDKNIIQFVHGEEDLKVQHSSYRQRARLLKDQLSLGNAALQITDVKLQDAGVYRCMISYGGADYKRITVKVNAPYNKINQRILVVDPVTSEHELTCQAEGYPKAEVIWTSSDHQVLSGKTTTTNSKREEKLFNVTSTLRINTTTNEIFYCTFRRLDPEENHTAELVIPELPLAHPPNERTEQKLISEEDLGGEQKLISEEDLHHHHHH
T2 sequence (Q9NZQ7 19-290): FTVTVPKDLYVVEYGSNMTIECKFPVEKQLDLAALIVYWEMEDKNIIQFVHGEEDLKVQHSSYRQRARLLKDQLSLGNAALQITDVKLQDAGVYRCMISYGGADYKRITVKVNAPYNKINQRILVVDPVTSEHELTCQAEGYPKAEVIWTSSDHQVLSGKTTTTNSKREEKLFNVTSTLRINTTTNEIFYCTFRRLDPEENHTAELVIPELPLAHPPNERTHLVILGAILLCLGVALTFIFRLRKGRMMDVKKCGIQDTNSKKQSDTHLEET

B1: REGN6192 (bispecific antibody, human IgG4 S228P, kappa)
heavy 1: EVQLVESGGGLVQPGRSLRLSCAASGFTFDDYALHWVRQAPGKGLEWVSGISWTGGTIDYADSVKGRFTISRDNAKNSLYLQMSSLRTEDTAIYYCTRDIRGNWKYGGWFDPWGQGTLVTVSSASTKGPSVFPLAPCSRSTSESTAALGCLVKDYFPEPVTVSWNSGALTSGVHTFPAVLQSSGLYSLSSVVTVPSSSLGTKTYTCNVDHKPSNTKVDKRVESKYGPPCPPCPAPPVAGPSVFLFPPKPKDTLMISRTPEVTCVVVDVSQEDPEVQFNWYVDGVEVHNAKTKPREEQFNSTYRVVSVLTVLHQDWLNGKEYKCKVSNKGLPSSIEKTISKAKGQPREPQVYTLPPSQEEMTKNQVSLTCLVKGFYPSDIAVEWESNGQPENNYKTTPPVLDSDGSFFLYSRLTVDKSRWQEGNVFSCSVMHEALHNHYTQKSLSLSLGK
heavy 2: EVQLVESGGGLVQPGGSLRLSCAASGFTFSTYAMTWVRQAPGKGLEWVSFISGSGDNTYYADSVKGRFTISRDNSKNTLYLQMNSLRADDSAIYHCAKDSGYCSSGGCSLYFYYGMDVWGQGTTVTVSSASTKGPSVFPLAPCSRSTSESTAALGCLVKDYFPEPVTVSWNSGALTSGVHTFPAVLQSSGLYSLSSVVTVPSSSLGTKTYTCNVDHKPSNTKVDKRVESKYGPPCPPCPAPPVAGPSVFLFPPKPKDTLMISRTPEVTCVVVDVSQEDPEVQFNWYVDGVEVHNAKTKPREEQFNSTYRVVSVLTVLHQDWLNGKEYKCKVSNKGLPSSIEKTISKAKGQPREPQVYTLPPSQEEMTKNQVSLTCLVKGFYPSDIAVEWESNGQPENNYKTTPPVLDSDGSFFLYSRLTVDKSRWQEGNVFSCSVMHEALHNRFTQKSLSLSPGK
light: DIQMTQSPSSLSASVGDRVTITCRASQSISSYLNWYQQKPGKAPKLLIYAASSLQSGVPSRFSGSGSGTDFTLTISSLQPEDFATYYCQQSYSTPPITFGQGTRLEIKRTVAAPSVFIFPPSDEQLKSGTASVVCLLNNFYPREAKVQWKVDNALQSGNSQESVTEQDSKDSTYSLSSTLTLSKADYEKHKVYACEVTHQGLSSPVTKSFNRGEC
notes: common light chain 1-39; also called PD-L1×CD28; anti-PD-L1 × anti-CD28 bispecific antibody
[1]
  IL2 release EC50, CD4+ T cells + HEK293/hCD20/hPSMA + CD20×CD3: 16.4 nM
  IL2 release EC50, CD4+ T cells + HEK293/hCD20/hPSMA/hPD-L1 + CD20×CD3: 0.104 nM
  IL2 release MAX (RLU), CD4+ T cells + HEK293/hCD20/hPSMA: 3870 RLU
  IL2 release MAX (RLU), CD4+ T cells + HEK293/hCD20/hPSMA + CD20×CD3: 25200 RLU
  IL2 release MAX (RLU), CD4+ T cells + HEK293/hCD20/hPSMA/hPD-L1: 2690 RLU
  IL2 release MAX (RLU), CD4+ T cells + HEK293/hCD20/hPSMA/hPD-L1 + CD20×CD3: 144000 RLU
[2]
  90 nM mAb Bind (RU): 15.4 RU
  Kd: 13.2 nM
  koff: 0.000342 s⁻¹
  kon: 25900 M⁻¹ s⁻¹
  t1/2: 0.563 h
[3]
  Fold Change (max MFI over secondary antibody alone): 24.1 fold
  Max gMFI: 10000 gMFI
[4]
  EC50: 2.5 nM
  Fold Change (max MFI over secondary antibody alone): 876 fold
  Max gMFI: 1.4e+06 gMFI
[5]
  30 nM hPD-L1.mmH Bind (RU): 34.9 RU
  Kd: 0.103 nM
  koff: 6.18e-05 s⁻¹
  kon: 600000 M⁻¹ s⁻¹
  t1/2: 3.11 h
[6]
  % Blocking at 100 nM mAb: 97%
  IC50: 1.2 nM
[7]
  AP-1 luciferase EC50, WSU-DLCL2/hPD-L1 + Jurkat/AP1-Luc/hPD1: 0.183 nM
  AP-1 luciferase MAX (RLU), WSU-DLCL2/hPD-L1 + Jurkat/AP1-Luc/hPD1: 1.19e+06 RLU
[8]
  NFkB-luciferase EC50, Jurkat/NFkB-Luc + HEK293/hCD20/hPSMA/hPD-L1 + CD20×CD3: 0.243 nM
  NFkB-luciferase MAX (RLU), Jurkat/NFkB-Luc + HEK293/hCD20/hPSMA: 17200 RLU
  NFkB-luciferase MAX (RLU), Jurkat/NFkB-Luc + HEK293/hCD20/hPSMA + CD20×CD3: 444000 RLU
  NFkB-luciferase MAX (RLU), Jurkat/NFkB-Luc + HEK293/hCD20/hPSMA/hPD-L1: 110000 RLU
  NFkB-luciferase MAX (RLU), Jurkat/NFkB-Luc + HEK293/hCD20/hPSMA/hPD-L1 + CD20×CD3: 2.32e+06 RLU

B2: REGN6193 (bispecific antibody, human IgG4 S228P, kappa)
heavy 1: B1 heavy 1
heavy 2: EVQLVESGGGLVQPGGSLRLSCAASGFTFSRNNMHWVRQAPGKGLEYVSGISSNGGRTYYADSVKGRFTISRDNSKNTLYLQMGGLRAADMAVYFCTRDDELLSFDYWGQGTLVTVSSASTKGPSVFPLAPCSRSTSESTAALGCLVKDYFPEPVTVSWNSGALTSGVHTFPAVLQSSGLYSLSSVVTVPSSSLGTKTYTCNVDHKPSNTKVDKRVESKYGPPCPPCPAPPVAGPSVFLFPPKPKDTLMISRTPEVTCVVVDVSQEDPEVQFNWYVDGVEVHNAKTKPREEQFNSTYRVVSVLTVLHQDWLNGKEYKCKVSNKGLPSSIEKTISKAKGQPREPQVYTLPPSQEEMTKNQVSLTCLVKGFYPSDIAVEWESNGQPENNYKTTPPVLDSDGSFFLYSRLTVDKSRWQEGNVFSCSVMHEALHNRFTQKSLSLSPGK
light: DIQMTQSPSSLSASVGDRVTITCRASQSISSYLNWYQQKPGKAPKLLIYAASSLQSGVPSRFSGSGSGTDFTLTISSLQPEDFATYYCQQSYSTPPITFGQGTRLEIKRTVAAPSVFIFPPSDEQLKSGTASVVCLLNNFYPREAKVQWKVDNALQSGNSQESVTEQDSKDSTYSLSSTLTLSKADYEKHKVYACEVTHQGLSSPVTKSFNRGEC
notes: as for B1
[1]
  IL2 release EC50, CD4+ T cells + HEK293/hCD20/hPSMA/hPD-L1 + CD20×CD3: 0.144 nM
  IL2 release MAX (RLU), CD4+ T cells + HEK293/hCD20/hPSMA: 4250 RLU
  IL2 release MAX (RLU), CD4+ T cells + HEK293/hCD20/hPSMA + CD20×CD3: 12600 RLU
  IL2 release MAX (RLU), CD4+ T cells + HEK293/hCD20/hPSMA/hPD-L1: 2760 RLU
  IL2 release MAX (RLU), CD4+ T cells + HEK293/hCD20/hPSMA/hPD-L1 + CD20×CD3: 141000 RLU
[2]
  90 nM mAb Bind (RU): 21.6 RU
  Kd: 46.9 nM
  koff: 0.00168 s⁻¹
  kon: 35900 M⁻¹ s⁻¹
  t1/2: 0.115 h
[3]
  Fold Change (max MFI over secondary antibody alone): 21.8 fold
  Max gMFI: 9200 gMFI
[4]
  EC50: 1.3 nM
  Fold Change (max MFI over secondary antibody alone): 847 fold
  Max gMFI: 1.3e+06 gMFI
[5]
  30 nM hPD-L1.mmH Bind (RU): 44.2 RU
  Kd: 0.116 nM
  koff: 6.37e-05 s⁻¹
  kon: 548000 M⁻¹ s⁻¹
  t1/2: 3.02 h
[6]
  % Blocking at 100 nM mAb: 98%
  IC50: 0.82 nM
[7]
  AP-1 luciferase EC50, WSU-DLCL2/hPD-L1 + Jurkat/AP1-Luc/hPD1: 0.202 nM
  AP-1 luciferase MAX (RLU), WSU-DLCL2/hPD-L1 + Jurkat/AP1-Luc/hPD1: 1.49e+06 RLU
[8]
  NFkB-luciferase EC50, Jurkat/NFkB-Luc + HEK293/hCD20/hPSMA/hPD-L1 + CD20×CD3: 0.413 nM
  NFkB-luciferase MAX (RLU), Jurkat/NFkB-Luc + HEK293/hCD20/hPSMA: 14200 RLU
  NFkB-luciferase MAX (RLU), Jurkat/NFkB-Luc + HEK293/hCD20/hPSMA + CD20×CD3: 217000 RLU
  NFkB-luciferase MAX (RLU), Jurkat/NFkB-Luc + HEK293/hCD20/hPSMA/hPD-L1: 19500 RLU
  NFkB-luciferase MAX (RLU), Jurkat/NFkB-Luc + HEK293/hCD20/hPSMA/hPD-L1 + CD20×CD3: 2.73e+06 RLU

B3: mAb9373 (antibody, V domains shown)
VH: QVQLVQSGTEVKKPGASVKVSCKASGYTFTAYYMHWVRQAPGQGLDWMGWISPNSGFTNYAQKFQGRVTMTRDTSINTFYMELSGLRSDDTAVYYCAREGSTHHNSFDPWGQGTLVTVSS
VL: not shown
notes: Bivalent parental antibody; also called parental bivalent anti-PD-L1 antibody; PD-L1 bivalent control antibody
[9]
  Fold Change (max MFI over secondary antibody alone): 5.2 fold
[1]
  IL2 release MAX (RLU), CD4+ T cells + HEK293/hCD20/hPSMA: 4530 RLU
  IL2 release MAX (RLU), CD4+ T cells + HEK293/hCD20/hPSMA + CD20×CD3: 9080 RLU
  IL2 release MAX (RLU), CD4+ T cells + HEK293/hCD20/hPSMA/hPD-L1: 3640 RLU
  IL2 release MAX (RLU), CD4+ T cells + HEK293/hCD20/hPSMA/hPD-L1 + CD20×CD3: 6960 RLU
[2]
  90 nM mAb Bind (RU): -1.3 RU
[8]
  NFkB-luciferase MAX (RLU), Jurkat/NFkB-Luc + HEK293/hCD20/hPSMA: 11000 RLU
  NFkB-luciferase MAX (RLU), Jurkat/NFkB-Luc + HEK293/hCD20/hPSMA + CD20×CD3: 181000 RLU
  NFkB-luciferase MAX (RLU), Jurkat/NFkB-Luc + HEK293/hCD20/hPSMA/hPD-L1: 11100 RLU
  NFkB-luciferase MAX (RLU), Jurkat/NFkB-Luc + HEK293/hCD20/hPSMA/hPD-L1 + CD20×CD3: 155000 RLU

B4: mAb9364 (antibody, V domains shown)
VH: EVQLVESGGGLVQPGRSLRLSCAASGFTFDDYALHWVRQAPGKGLEWVSGISWTGGTIDYADSVKGRFTISRDNAKNSLYLQMSSLRTEDTAIYYCTRDIRGNWKYGGWFDPWGQGTLVTVSS
VL: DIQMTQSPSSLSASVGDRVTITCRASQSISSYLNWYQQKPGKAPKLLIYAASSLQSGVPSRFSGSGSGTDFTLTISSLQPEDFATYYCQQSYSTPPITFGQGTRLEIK
notes: as for B3
[9]
  Fold Change (max MFI over secondary antibody alone): 4.7 fold
[1]
  IL2 release MAX (RLU), CD4+ T cells + HEK293/hCD20/hPSMA: 4360 RLU
  IL2 release MAX (RLU), CD4+ T cells + HEK293/hCD20/hPSMA + CD20×CD3: 8980 RLU
  IL2 release MAX (RLU), CD4+ T cells + HEK293/hCD20/hPSMA/hPD-L1: 3680 RLU
  IL2 release MAX (RLU), CD4+ T cells + HEK293/hCD20/hPSMA/hPD-L1 + CD20×CD3: 10900 RLU
[2]
  90 nM mAb Bind (RU): -0.9 RU
[4]
  EC50: 0.73 nM
  Fold Change (max MFI over secondary antibody alone): 401 fold
  Max gMFI: 620000 gMFI
[5]
  30 nM hPD-L1.mmH Bind (RU): 112 RU
  Kd: 0.13 nM
  koff: 7.42e-05 s⁻¹
  kon: 571000 M⁻¹ s⁻¹
  t1/2: 2.59 h
[6]
  % Blocking at 100 nM mAb: 99%
  IC50: 0.52 nM
[7]
  AP-1 luciferase EC50, WSU-DLCL2/hPD-L1 + Jurkat/AP1-Luc/hPD1: 0.00651 nM
  AP-1 luciferase MAX (RLU), WSU-DLCL2/hPD-L1 + Jurkat/AP1-Luc/hPD1: 1.04e+06 RLU
[8]
  NFkB-luciferase MAX (RLU), Jurkat/NFkB-Luc + HEK293/hCD20/hPSMA: 44400 RLU
  NFkB-luciferase MAX (RLU), Jurkat/NFkB-Luc + HEK293/hCD20/hPSMA + CD20×CD3: 180000 RLU
  NFkB-luciferase MAX (RLU), Jurkat/NFkB-Luc + HEK293/hCD20/hPSMA/hPD-L1: 57100 RLU
  NFkB-luciferase MAX (RLU), Jurkat/NFkB-Luc + HEK293/hCD20/hPSMA/hPD-L1 + CD20×CD3: 165000 RLU
